Data taken from patent publication US20150031754, “APTAMER MODULATORS OF ESTROGEN RECEPTORS” (RESEARCH FOUNDATION OF STATE UNIVERSITY OF NEW YORK AT …, published 2015).

What was measured:
[1] = target: T1, hERα DNA-binding domain (Homo sapiens, UniProt P03372 P03372:180-268); test: EMSA; also no binding in filter assay; settings: tags: N-terminal His6; E. coli BL21(DE3); label: 32P-CTP internal
Method: No binding activity to RNase inhibitor (control) or DBD & RNase inhibitor was detected. The binding reactions were resolved on the same type of gel as above. […] End-radiolabeled ERE-50mer at 5 nM was mixed with 100× or 400× more concentrated unlabeled competitors ERE-50mer, AptER-1, -2 and -3 RNA or an early generation pool in hERα selection G1 before addition of hERα (40 nM). Only cold ERE-50mer disrupted radioactive ERE-hERα complex.
Class I aptamers bound with similar affinities to both subtypes of ER, which share the highest homology (96%) in the DBD. This raised the possibility that the target site of Class I aptamers was located within the DBD. Whether the aptamers bind to the DBD was tested in binding assays using a recombinant hERα-DBD. It was expressed as a His₆-tagged fusion protein in E. coli BL21 (DE3) and purified as described in the Materials and Methods. To verify its ERE-binding capability, a DNA EMSA was performed. DNA oligo ERE-50mer contains a GAAA tetra loop, which forces the oligo to form a hairpin. A copy of Xenopus laevis vitellogenin A2 ERE (5′-[…]-3′, SEQ ID NO: 73) was presented in the stem of a hairpin. […] However, in both EMSA (FIG. 11B) and filter-binding assay, no association was detected between AptER-1 and DBD. […]

[2] = target: T2, Human estrogen receptor beta (hERβ) (Homo sapiens, UniProt Q92731 Q92731:1-530); test: filter; text prints hERα for this 26 nM value but context compares with hERβ (probable typo); settings: tags: none stated; baculovirus/insect cells; EMD4 Biosciences 330657; label: 32P-CTP internal
Method: A constant trace amount of [γ-³²P]-CTP incorporated RNA aptamer (˜0.1 nM) was titrated with increasing amounts of the target protein ranging from 5 to 150 nM. The binding activity at each concentration was determined as % binding, by calculating the radioactive signal of the RNA-protein complex retained on the filter as a percentage of the signal at the highest protein concentration (saturated) used. The assays were performed in triplicates for each aptamer. A binding curve was constructed using Sigma Plot 9.0.1, with average binding affinity (% binding) as a function of the protein concentration using a sigmoidal equation (Hill equation, 3 parameters). Apparent Kd was the protein concentration where half of the maximal binding activity was achieved, and were calculated from the data points by using Sigma Plot. […] The first 3 aptamers were isolated in in vitro selection I, and their affinity rank explains the relative abundance in the final selected library. More specifically, it is believed that AptER-1 dominated the final selected pool because it was the strongest binder. AptER-4 was the weakest binder, and would not have been easily identified in the selection I libraries. […]

[3] = target: hERα ligand-binding domain (Homo sapiens, UniProt P03372 P03372:282-595); test: EMSA; 100 nM protein, 2.5 nM RNA; settings: tags: GST fusion, baculovirus/insect cells, Invitrogen PV4543, label: 32P-CTP internal
Method: Human ERα was incubated with ligands (40 nM to 5 μM E2 or OHT) or vehicle control (EtOH) at 37° C. for 10 min before addition of RNA. Regardless of the absence or presence of the ligands, hERα formed a complex with AptER-1 in the same way. In FIG. 12B, the ligand competition assays showing that the interaction between AptER-4 and hERα was not intervened by ligand-binding. Human ERα was incubated with 1 μM E2 or vehicle control (EtOH) before addition of AptER-4. Regardless of the absence or presence of the ligands, hERα formed a complex with AptER-4 in the same way. […] Proteins were 100 nM. In the presence of hERα, both aptamers were shifted. No binding activity to GST/hERα-LBD was detected.
Whether the aptamers bind to LBD was examined in two ways. One approach was an EMSA to directly examine whether the aptamers bound to the GST/hERα-LBD construct. The recombinant human ERα-LBD purchased from Invitrogen was expressed as a GST-tagged fusion protein in baculovirus-infected insect cells. It contains amino acid 282 to 595 of hERα, with a calculated molecular weight of 62.80 kDa protein. According to the manufacturer's instruction, the concentration of functional receptor was determined by quantification of estrodial, [6, 7-³H9(N)] receptor complexes using a hydroxyapatite (HAP) assay. Binding reactions were set up with 2.5 nM radiolabeled aptamers and 100 nM protein. […]

[4] = target: T3, Human estrogen receptor alpha (hERα), full-length, unliganded (Homo sapiens, UniProt P03372 P03372:1-595); test: FP; filter-binding assay (nitrocellulose), 12 mM HEPES pH 7.6, 150 mM NaCl, 10 mM MgCl2, 37 C; Hill coefficient about 1; settings: tags: none stated; baculovirus/insect cells; Invitrogen P2187 or EMD4 Biosciences 330655; label: 32P-CTP internal
Method: (§1) The dissociation constant (Kd) of the AptER-1, -2, -3, and -4 were measured using a nitrocellulose filter binding assay. A constant trace amount of [γ-³²P]-CTP incorporated RNA aptamer (˜0.1 nM) was titrated with increasing amounts of the target protein ranging from 5 to 150 nM. The binding activity at each concentration was determined as % binding, by calculating the radioactive signal of the RNA-protein complex retained on the filter as a percentage of the signal at the highest protein concentration (saturated) used. The assays were performed in triplicates for each aptamer. A binding curve was constructed using Sigma Plot 9.0.1, with average binding affinity (% binding) as a function of the protein concentration using a sigmoidal equation (Hill equation, 3 parameters). Apparent Kd was the protein concentration where half of the maximal binding activity was achieved, and were calculated from the data points by using Sigma Plot. […] The first 3 aptamers were isolated in in vitro selection I, and their affinity rank explains the relative abundance in the final selected library. More specifically, it is believed that AptER-1 dominated the final selected pool because it was the strongest binder. AptER-4 was the weakest binder, and would not have been easily identified in the selection I libraries.

[5] = target: T3, Human estrogen receptor alpha (hERα), …; test: filter; same buffer, 37 C; Hill n>1; settings: tags: none stated; baculovirus/insect cells; Invitrogen P2187 or EMD4 Biosciences 330655; label: 32P-CTP internal; predicted three-way junction with two long hairpins
Method: as §1

[6] = target: T2, Human estrogen receptor beta (hERβ); test: filter; affinity for hERβ too low to be determined; settings: tags: none stated; baculovirus/insect cells; EMD4 Biosciences 330657; label: 32P-CTP internal; predicted three-way junction with two long hairpins
[7] = target: T1, hERα DNA-binding domain; test: DBD binding assay, method not specified; settings: tags: N-terminal His6; E. coli BL21(DE3); label: 32P-CTP internal; predicted three-way junction with two long hairpins

T2 sequence (Q92731 whole entry, one chain of several): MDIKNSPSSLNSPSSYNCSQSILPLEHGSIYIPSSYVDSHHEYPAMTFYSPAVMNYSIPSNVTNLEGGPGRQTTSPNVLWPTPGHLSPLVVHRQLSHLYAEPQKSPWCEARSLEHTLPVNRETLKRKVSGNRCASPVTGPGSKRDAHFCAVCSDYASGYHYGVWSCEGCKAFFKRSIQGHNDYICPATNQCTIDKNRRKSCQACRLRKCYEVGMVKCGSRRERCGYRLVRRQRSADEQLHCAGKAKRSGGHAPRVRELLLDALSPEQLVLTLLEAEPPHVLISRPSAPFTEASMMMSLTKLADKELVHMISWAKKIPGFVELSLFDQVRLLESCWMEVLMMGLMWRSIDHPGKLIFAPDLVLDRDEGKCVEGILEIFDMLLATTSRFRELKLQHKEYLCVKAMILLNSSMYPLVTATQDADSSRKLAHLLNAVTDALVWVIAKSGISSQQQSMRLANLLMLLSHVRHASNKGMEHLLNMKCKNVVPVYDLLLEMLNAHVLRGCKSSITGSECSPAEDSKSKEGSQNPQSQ
T1 sequence (P03372 180-268, one chain of several): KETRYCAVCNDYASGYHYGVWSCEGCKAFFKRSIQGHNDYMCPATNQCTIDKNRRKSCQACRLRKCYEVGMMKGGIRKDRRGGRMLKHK
Chain of hERα ligand-binding domain (P03372 282-595, one chain of several): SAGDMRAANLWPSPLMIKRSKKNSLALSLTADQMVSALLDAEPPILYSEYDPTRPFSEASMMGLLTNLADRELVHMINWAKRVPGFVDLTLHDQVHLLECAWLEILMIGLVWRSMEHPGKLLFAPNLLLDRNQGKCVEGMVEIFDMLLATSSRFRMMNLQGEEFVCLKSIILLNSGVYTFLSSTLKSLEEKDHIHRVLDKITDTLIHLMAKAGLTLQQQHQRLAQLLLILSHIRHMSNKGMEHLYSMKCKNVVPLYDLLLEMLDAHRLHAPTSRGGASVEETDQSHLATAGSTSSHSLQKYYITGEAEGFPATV
T3 sequence (P03372 whole entry, one chain of several): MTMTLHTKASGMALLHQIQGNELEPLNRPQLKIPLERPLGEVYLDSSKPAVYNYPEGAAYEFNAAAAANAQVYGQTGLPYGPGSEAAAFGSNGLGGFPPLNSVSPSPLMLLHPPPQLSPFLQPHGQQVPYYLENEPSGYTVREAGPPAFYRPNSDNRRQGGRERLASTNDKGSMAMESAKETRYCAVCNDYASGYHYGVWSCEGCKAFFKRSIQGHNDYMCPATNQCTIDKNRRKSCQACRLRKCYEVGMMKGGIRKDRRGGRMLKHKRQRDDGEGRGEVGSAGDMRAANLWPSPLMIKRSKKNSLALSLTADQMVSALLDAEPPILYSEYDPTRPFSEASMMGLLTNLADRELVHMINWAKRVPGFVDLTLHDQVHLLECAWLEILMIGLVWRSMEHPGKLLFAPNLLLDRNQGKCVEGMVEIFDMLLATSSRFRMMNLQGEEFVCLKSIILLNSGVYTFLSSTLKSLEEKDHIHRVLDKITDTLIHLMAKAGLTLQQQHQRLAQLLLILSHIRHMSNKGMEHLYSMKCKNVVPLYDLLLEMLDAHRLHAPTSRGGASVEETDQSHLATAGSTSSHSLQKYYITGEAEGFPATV

B1: AptER-1 (clone B63) (ssRNA)
RNA: GGGAGAAUUCAACUGCCAUCUAGGCCCACAGUUCAGAGGCACCGCGAACAAAACGCAAGACAGAGUGCCGACAAGAGCACUACAAGCUUCUGGACUCGGU
binding result [1]: no binding | Kd [2]: ~26 nM | binding result [3]: no binding | Kd [4]: ~16 nM

B2: AptER-4 (ssRNA)
RNA: GGGAGAAUUCAACUGCCAUCUAGGCCACAGCCGGCGGUCGAACACCAGAGGGCGACUUUGGGUAGUCGAGUAUUAAGUACUACAAGCUUCUGGACUCGGU
Kd [5]: ~45 nM | binding result [6]: no binding | binding result ([3]; predicted three-way junction with two long hairpins): no binding | binding result [7]: no binding
